We go through 3 molecules from patent US9115359B2, “Methods for producing secondary metabolites” (NewSouth Innovations Pty Limited, priority 2007, dated 2015).

The target in data set [1] is truncated SACP, SACP3 (Synechocystis sp. PCC6803) (UniProt P20804).
Data set [2] has as its target Bacillus brevis ATCC8185 NRPS peptidyl carrier protein involved in tyrocidine biosynthesis (TycPCP) (Bacillus brevis ATCC8185).
The next data set deals with NpACP. The data set can be described thus: Sppt in vitro phosphopantetheinylation of non-cognate carrier proteins, ESI-MS. It is filed as biochemical, N. punctiforme ATCC29133. The settings on record: 30 min reaction. Here is the method:
(§1) Sppt activity towards SACP was determined in a 10 min phosphopantetheinylation assay at 37° C. as previously described in Copp J. N., Roberts A. A., Marahiel M. A., Neilan B. A., 2007, Characterization of PPTNs, a cyanobacterial phosphopantetheinyl transferase from Nodularia spumigena NSOR10. J Bacteria 189(8):3133-9. Briefly, the 100-200 μl reactions comprised of 50 mM Tris-HCl pH 7.4, 12.5 mM MgCl2, 0.5 mM CoA, 2 μM DTT, 100 μM carrier protein and 300 nM Sppt. Reactions were incubated for 10 min at 37° C., terminated by the addition of 1 ml trichloroacetic acid and precipitated overnight at −20° C. before centrifugation for 15 min at 18,000×g. Samples were dissolved in water:acetonitrile:formic acid (50:49:1). Phosphopantetheinylation was observed by an increase in mass of 340 Da as visualised by electrospray ionisation mass spectrometry (ESI-MS). […]
(§2) The ability of Sppt to activate carrier proteins from a range of secondary metabolism pathways was tested, including those from unicellular and filamentous, heterocyst-forming cyanobacteria. […] Protein concentrations were determined based on the calculated extinction coefficients: NpArCP 8,250 cm^−1M^−1, NpACP 13,940 cm^−1M^−1, MPCP 6,970 cm^−1M^−1 and TycPCP 9,530 cm^−1M^−1. Phosphopantetheinylation assays were carried out in 30 min reactions and analysed by ESI-mass spectrometry described in Example 4 above.

In a further data set the test system is NpArCP. Described as above. It is filed as biochemical, N. punctiforme ATCC29133. The note with it: 30 min reaction. Here is the method:
as §1, §2

The next data set deals with MPCP. The description is as above. The note with it: 30 min reaction. It is filed as biochemical, M. aeruginosa PCC7806. Here is the method: as §1, §2
For another data set, the system named is TycPCP. Described as above. It is filed as biochemical, Bacillus brevis ATCC8185. The note with it: 30 min reaction; estimated from holo- and apo-CP abundance in mass spectra. The protocol:
as §1, §2

Substrate in data set [3]: CC(C)(COP(=O)(O)OP(=O)(O)OC[C@H]1O[C@@H](n2cnc3c(N)ncnc32)[C@H](O)[C@@H]1OP(=O)(O)O)[C@@H](O)C(=O)NCCC(=O)NCCS
In words: Phosphopantetheinylation assay with HPLC analysis: kinetics of Sppt with respect to CoA, carrier protein SACP3 (truncated SACP). It is filed as biochemical, Synechocystis sp. PCC6803. The settings on record: other: Michaelis-Menten fit, 37° C. The text has this: Sppt and SACP were expressed and purified to determine the activity of Sppt via phosphopantetheinylation assays. Sppt was amplified by the primer pair SynPpF (5′-TGTTTAAACTCACCTG-3′) (SEQ ID NO: 9) and SynPpR (5′-CCCAAGGTTACGAAAC-3′) (SEQ ID NO: 10). The resulting PCR product was cloned into pGEM-T (Promega), digested with the restriction enzymes SacI and EcoRV and ligated into pET30 (Novagen, San Diego, Calif.). The Synechocystis sp. PCC6803 fatty acid synthesis (FAS) ACP, designated SACP (AcpP BA000022), was amplified by the primer pair ssl2084Efw (5′-[…]-3′) (SEQ ID NO: 11) and ssl12084 Hry (5′-[…]-3′) (SEQ ID NO: 12), digested with the restriction enzymes EcoRI and HindIII, and cloned into pET30. A truncated SACP, SACP3, was cloned and expressed for HPLC kinetic analysis using the primers 2084NdeF (5′-[…]-3′) (SEQ ID NO: 13) and 2083XhoR (5′-[…]-3′) (SEQ ID NO: 14).
The constructs were transformed into BL21(DE3) Rosetta (Novagen) for expression. Sppt was expressed at 37° C., with an induction concentration of 1 mM isopropyl-beta-D-thiogalactopyranoside (IPTG), for 3 hours. SACP and SACP3 were expressed at 37° C. with 1 mM IPTG for 20-40 min. Cultures were harvested at 5,000×g and cell pellets were stored at −80° C. Cell pellets were resuspended in Hepes buffer (Hepes 50 mM, NaCl 150 mM pH 7.4) and passaged three times through a cooled French pressure cell at […] (Paton Scientific, Victor Harbor, South Australia). […]
The protein concentrations were determined based on the calculated extinction coefficients: SACP 6,970 cm^−1M^−1, Sppt 53,110 cm^−1M^−1. […]
Sppt activity towards SACP was determined in a 10 min phosphopantetheinylation assay at 37° C. as previously described in Copp J. N., Roberts A. A., Marahiel M. A., Neilan B. A., 2007, Characterization of PPTNs, a cyanobacterial phosphopantetheinyl transferase from Nodularia spumigena NSOR10. […]
The CoA inhibition and pH activity range for Sppt was determined using in vitro phosphopantetheinylation assays with the truncated SACP3. […]

For the molecule “Synechocystis sp. PCC6803 phosphopantetheinyl transferase (Sppt) (from UniProt Q55185) (enzyme)”, the kcat of phosphopantetheinylation of SACP3 (HPLC assay, CoA varied) (min^-1 (printed min^d)) in data set [1] stood at 28.4. In data set [2], the phosphopantetheinylation of the carrier protein (30 min assay, ESI-MS; % holo-CP) was 54%.

B1: Sppt: Synechocystis sp. PCC6803 phosphopantetheinyl transferase (slr0495, Swissprot Q55185) (protein)
chain: MLPQPQIWLCPTDRPLIPGYQALLSSEEMARGERYQRPQDKQRFLTMRLALRILLARQLDCLPQQLQFTYGPQGKPELVDRERRSPWFNVAHSGNYGLIGLSTEGEIGVDLQIMLPKPHYLKLAKRFFAPQEVQQLESLEGEKRTKLFYQLWTAKEAFLKATGKGISGGLNQVIPDENLAKYQYLPDSGDTNHWRLSSQPLLADQGSNDNYWMAIAWCTNEVNQVESNYLPNIQPFQWPRNLDSLP
As to B1, the “phosphopantetheinylation of NpACP” value in the data set with NpACP is “not reproducibly detected”. Moreover, the “phosphopantetheinylation of NpArCP” value with NpArCP is on record as “unable to phosphopantetheinylate”. Besides, in the data set on MPCP, the “phosphopantetheinylation of MPCP” value is “small mass peak corresponding to the addition of a 340 Da phosphopantetheinyl moiety”. In the data set with TycPCP, the “TycPCP phosphopantetheinylated (% holo-CP)” value is given as “approximately 54%”.

B2: Synechocystis sp. PCC6803 phosphopantetheinyl transferase Sppt (slr0495, Swissprot accession number Q55185) (Synechocystis sp. PCC 6803 substr. Kazusa) (protein)
chain: MAISAEFALCLNSPVLPQPQIWLCPTDRPLIPGYQALLSSEEMARGERYQRPQDKQRFLTMRLALRILLARQLDCLPQQLQFTYGPQGKPELVDRERRSPWFNVAHSGNYGLIGLSTEGEIGVDLQIMLPKPHYLKLAKRFFAPQEVQQLESLEGEKRTKLFYQLWTAKEAFLKATGKGISGGLNQVIPDENLAKYQYLPDSGDTNHWRLSSQPLLADQGSNDNYWMAIAWCTNEVNQVESNYLPNIQPFQWPRNLHSLPSFRYLGKGEFQHTGGRY
notes: carrier-protein substrate truncated SACP3
As to B2, in data set [3], the Km came out at 169.17 ± 37.48 µM, the kcat is 0.473 s⁻¹ and the kcat/Km came to 2800 M⁻¹ s⁻¹.

What is called Km is the concentration of substrate that gives half-maximal velocity. One may read the kcat as the maximal rate divided by the concentration of active sites. As a reminder, the kcat/Km is the turnover number divided by the Michaelis constant.
